Assay results: patent publication US20220396627A1 (VERSEAU THERAPEUTICS, published 2022)
Numbering of substitutions follows the chain as printed. Numbers in names are those of the source.

B1: 9D21 (antibody, V domains shown)
VH: QVQLKESGPGLVAPSQSLSITCTVSGFSLTRYGVSWVRQPPGKGLEWLGVIWGDGSTNYHSALISRLSISKDNSKSQVFLKLNSLQTDDTATYYCARPYYGFFDYWGQGTTLTVSS
VL: SIVMTQTPKFLLVSAGDRVTITCKASQSVSNAVAWYQQKPGQSPKMLIYYASNRYTGVPDRFTGSGYGTDFTFTISTVQAEDLAVYFCQQDYSSPYTFGGGTKLEIK
B2: 12L19 (antibody, V domains shown)
VH: QVTLKESGPGILQPSQTLSLTCSFSGFSLNTFGMAVGWIRQPSGKGLEWLAHIWWDDSYYFNPALRSRLTISKDTSKNQVFLTIANVDTADTATYYCTRIPDDYDDYAMDYWGQGTSVTVSS
VL: DVVMTQTPLSLPVSLGDQASISCRSSQSLVHSNGNTYLHWYLQKPGQSPKLLVYKVSNRFSGVPDRFSGSGSGTDFTLKISRVEAEDLGVYFCSQNTHIPYTFGGGTKLEIK
B3: 12P18 (antibody, V domains shown)
VH: QVQLQQSGAELVRPGASVTLSCKASGYTFTDYEMHWVKQTPVHGLEWIGAIDPEAGGTAYNRKFKGKAILTADKSSSTAYMELRSLTSEDSAVYYCTNLGRDYWGQGTTLTVSS
VL: DIVMSQSPSSLAVSVGEKVTMSCKSSQSLLYSSTQKNYLAWYQQKPGQSPKRLIYWASTRESGVPDRFTGSGSGTDFTLTISSVKAEDLAVYYCQQYYSYWTFGGGTKLEIK
B4: 3L02 (antibody, V domains shown)
VH: DVQLQESGPGMVKPSQSLSLTCTVTGYSITSGYDWHWIRHFPGNKLEWMGYISYSAGTNYNPSLKSRISITHDTSKNHFFLKLNSVTTEDTATYYCAREGLTAYWYFDVWGTGTTVTVSS
VL: DIVMTQSQKFMSTSVGDRVSVTCKASQTVGTNVAWYQQKPGQSPKPLIYSASYRYSGVPDRFTGSGSGTDFTLTISNVQSEDLAEYFCQQYDSFPLTFGSGTKLEIK
B5: 9C15 (antibody, V domains shown)
VH: QVQLQQPGAELVKPGASVKMSCKASGYTFTSYWITWLNQRPGQGLEWIGDIYPGSGGTNYNERFKSKATLTVDTSSSTAYMQLSSLTSEDSAVYYCARSGGWAMDYWGQGTSVTVSS
VL: DIQMTQTTSSLSASLGDRVTISCRASQDISNYLNWYQQKPDGTVKLLIYYKSGLHSGVPSRFSGSGSGTDYSLTISNLEQEDIATYFCQQGNTLPFTFGGGTKLEIK
B6: 12G23 (antibody, V domains shown)
VH: EVQLQQSGPELVRPGASVKMSCKASGYTFTDYNMHWVKQSHGKSLEWIGYINPNNGGTSYNQKFKGKATLTVNKSSSTAYMELRSLTSDDSAVYYCAREGYGNYPFYWGQGTTLTVSS
VL: DIVLTQSPASLAVSLGQRVTISCRGSESVEYYGTSLMQWYQQKPGQPPKLLIYAASNVESGVPARFSGSGSGTDFSLNIHPVEEDDIAMYFCQQDRKVPYTFGGGTKLEIK
B7: 13O18 (antibody, V domains shown)
VH: B6 VH with S59T, K63N, D89E
VL: B6 VL with G25A, Y90F
B8: 3L02 mouse/human chimeric antibody (human IgG4 S228P, kappa) (antibody, V domains shown)
VH: B4 VH
VL: DIVMTQSQKFMSTSVGDRVSVTCKASQTVGTNVAWYQQKPGQSPKPLIYSASYRYSGVPDRFTGSGSGTDFTLTISNVQSEDLAEYFCQQYDSFPLTFGSGTKLEIKR

Tests used:
[1] = molecular target: T1, Human Siglec-9-Fc (recombinant human Siglec-9 extracellular domain Q18-G348 fused to human IgG1 Fc) (human); test: BLI binning, hSiglec-9-Fc on AHC sensor; competitor bound first (row): 3L02
T1 sequence (chain, as listed by the source limits assumed): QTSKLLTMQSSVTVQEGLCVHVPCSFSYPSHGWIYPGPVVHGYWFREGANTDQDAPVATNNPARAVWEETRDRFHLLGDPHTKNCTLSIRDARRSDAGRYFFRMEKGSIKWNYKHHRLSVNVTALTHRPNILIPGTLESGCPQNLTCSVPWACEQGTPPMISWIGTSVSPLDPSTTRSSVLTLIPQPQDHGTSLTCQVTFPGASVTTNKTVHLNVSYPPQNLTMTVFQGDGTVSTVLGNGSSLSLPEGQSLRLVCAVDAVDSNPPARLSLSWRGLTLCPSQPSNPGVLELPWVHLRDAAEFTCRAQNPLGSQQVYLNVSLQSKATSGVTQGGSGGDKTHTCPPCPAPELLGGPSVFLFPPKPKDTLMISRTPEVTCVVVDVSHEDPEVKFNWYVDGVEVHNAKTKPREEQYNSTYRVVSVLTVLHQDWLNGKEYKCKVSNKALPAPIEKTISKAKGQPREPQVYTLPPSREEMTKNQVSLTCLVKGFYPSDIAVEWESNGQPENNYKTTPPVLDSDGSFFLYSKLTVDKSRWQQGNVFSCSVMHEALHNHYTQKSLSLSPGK
Experimental: (§1) Epitopic diversity of functional antibodies was further assessed by antibody cross-blocking experiments, performed on a ForteBio Octet Red384 system. All samples were prepared in black 384-well flat bottom plates from (Greiner, Cat. #781209) with a working volume of 120 uL and diluted in kinetics buffer (1×DPBS containing 0.1% bovine serum albumin, 0.05% sodium azide, and 0.02% Tween®20). Anti-SIGLEC-9 antibodies and human Siglec-9-Fc protein were diluted in kinetics buffer to a final concentration of 10 ug/mL. Anti-human IgG Fc capture (AHC) biosensors (ForteBio, Cat. #18-5060) were rehydrated prior to the assay in kinetics buffer for 10 minutes then equilibrated in kinetics buffer for 60 seconds. Recombinant human Siglec-9-Fc was then immobilized for 120 seconds followed by a 30 second baseline wash in fresh kinetics buffer, 120 second association of a first antibody (antibody “a”), 30 second wash, and then 120 second association of a competitor antibody (antibody “b”). All assay steps occurred at 30° C. with an acquisition rate of 5.0 Hz.
(§2) Binning results were calculated using ForteBio Data Analysis HT software. Antibody “a” and antibody “b” steps were defined, and the maximum binding calculation was averaged at the last 10% of the step duration. Once the matrix was generated the self-self interaction was subtracted and hierarchical clustering was set with a similarity metric of Pearson and Lingang Criteria by Mean and the maximum binding nm shift is reported in Table 7 below.

Human SIGLEC7 = molecular target: T2, Human SIGLEC7; test: ELISA: plate coated with 1 ug/mL human Siglec-7-Fc, antibody at 100 nM, HRP anti-mouse Fc secondary, RLU
T2 construct: also called human Siglec-7-Fc
T2 sequence (Fc fusion chain, as listed by the source): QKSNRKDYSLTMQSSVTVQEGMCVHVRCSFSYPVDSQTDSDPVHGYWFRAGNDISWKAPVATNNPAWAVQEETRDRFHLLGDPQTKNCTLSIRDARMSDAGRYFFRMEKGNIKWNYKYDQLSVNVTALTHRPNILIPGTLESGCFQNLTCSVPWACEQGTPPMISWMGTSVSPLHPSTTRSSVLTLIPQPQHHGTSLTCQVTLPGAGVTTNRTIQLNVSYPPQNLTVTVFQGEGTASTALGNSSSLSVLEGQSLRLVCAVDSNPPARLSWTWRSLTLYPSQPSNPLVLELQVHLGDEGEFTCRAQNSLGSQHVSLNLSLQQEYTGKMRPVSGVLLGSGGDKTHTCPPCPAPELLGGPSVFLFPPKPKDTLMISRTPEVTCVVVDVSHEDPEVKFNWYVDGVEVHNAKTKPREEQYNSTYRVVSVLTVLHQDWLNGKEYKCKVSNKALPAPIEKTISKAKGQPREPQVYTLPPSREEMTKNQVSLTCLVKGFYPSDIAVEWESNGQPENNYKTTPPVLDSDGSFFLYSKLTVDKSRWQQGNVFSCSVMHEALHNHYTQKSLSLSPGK
Experimental: (§3) ELISA plates (384-well) were coated with 1 ug/mL indicated SIGLEC protein at room temperature. The plates were washed with PBS with 0.1% Tween®20, pH 7.4 and blocked with TBS containing 3% BSA. The plates were washed and incubated with anti-SIGLEC9 antibody diluted to 100 nM. Plates were washed and incubated with HRP-coupled anti-mouse Fc secondary antibody. Plates underwent a final wash and were incubated with HRP substrate. Readout was performed using a POLARstar Omega Microplate Reader (BMG LAPTECH).

[2] = molecular target: T1, Human Siglec-9-Fc (recombinant human …); test: BLI binning, hSiglec-9-Fc on AHC sensor; competitor bound first (row): 12G23
Experimental: as §1, §2

[3] = molecular target: T1, Human Siglec-9-Fc (recombinant human …); test: BLI binning, hSiglec-9-Fc on AHC sensor; competitor bound first (row): 13H10 (printed 13H110)
Experimental: as §1, §2

Cyno SIGLEC9 = molecular target: T3, Cyno SIGLEC9; test: ELISA: plate coated with 1 ug/mL cyno Siglec-9-Fc, antibody at 100 nM, HRP anti-mouse Fc secondary, RLU
T3 construct: also called cyno Siglec-9-Fc; Cynomolgus Monkey SIGLEC9-Fc
T3 sequence (Fc fusion chain, as listed by the source): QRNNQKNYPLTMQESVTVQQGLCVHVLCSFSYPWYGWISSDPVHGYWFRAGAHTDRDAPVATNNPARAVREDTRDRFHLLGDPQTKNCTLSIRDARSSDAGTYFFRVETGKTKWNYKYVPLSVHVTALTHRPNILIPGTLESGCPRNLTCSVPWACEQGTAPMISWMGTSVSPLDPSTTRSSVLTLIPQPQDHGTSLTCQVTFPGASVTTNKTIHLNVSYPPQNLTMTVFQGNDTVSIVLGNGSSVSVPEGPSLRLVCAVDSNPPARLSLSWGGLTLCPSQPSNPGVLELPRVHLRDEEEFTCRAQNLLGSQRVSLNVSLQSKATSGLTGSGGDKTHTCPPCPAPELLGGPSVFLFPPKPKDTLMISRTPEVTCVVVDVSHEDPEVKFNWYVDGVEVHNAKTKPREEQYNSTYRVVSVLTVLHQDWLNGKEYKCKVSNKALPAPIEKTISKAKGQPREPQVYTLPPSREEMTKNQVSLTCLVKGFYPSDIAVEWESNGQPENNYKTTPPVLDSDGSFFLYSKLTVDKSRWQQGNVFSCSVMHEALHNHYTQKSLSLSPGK
Experimental: as §3

[4] = molecular target: T1, Human Siglec-9-Fc (recombinant human …); test: BLI binning, hSiglec-9-Fc on AHC sensor; competitor bound first (row): 13O18
Experimental: as §1, §2

[5] = molecular target: T1, Human Siglec-9-Fc (recombinant human …); test: BLI binning, hSiglec-9-Fc on AHC sensor; competitor bound first (row): 12L19
Experimental: as §1, §2

[6] = molecular target: T1, Human Siglec-9-Fc (recombinant human …); test: BLI binning, hSiglec-9-Fc on AHC sensor; competitor bound first (row): 13J19
Experimental: as §1, §2

[7] = molecular target: T1, Human Siglec-9-Fc (recombinant human …); test: BLI binning, hSiglec-9-Fc on AHC sensor; competitor bound first (row): 9C15
Experimental: as §1, §2

[8] = molecular target: T1, Human Siglec-9-Fc (recombinant human …); test: BLI binning, hSiglec-9-Fc on AHC sensor; competitor bound first (row): 2F15
Experimental: as §1, §2

[9] = molecular target: T1, Human Siglec-9-Fc (recombinant human …); test: BLI binning, hSiglec-9-Fc on AHC sensor; competitor bound first (row): 12P18
Experimental: as §1, §2

[10] = molecular target: T1, Human Siglec-9-Fc (recombinant human …); test: BLI binning, hSiglec-9-Fc on AHC sensor; competitor bound first (row): 9D21
Experimental: as §1, §2

[11] = molecular target: T4, Recombinant cyno Siglec-9-His (cynomolgus macaque); test: BLI (Octet Red384), chimeric antibody on AHC sensor, His-tagged analyte
T4 construct: also called Cynomolgus Monkey SIGLEC9-HIS
T4 sequence (chain, as listed by the source limits assumed): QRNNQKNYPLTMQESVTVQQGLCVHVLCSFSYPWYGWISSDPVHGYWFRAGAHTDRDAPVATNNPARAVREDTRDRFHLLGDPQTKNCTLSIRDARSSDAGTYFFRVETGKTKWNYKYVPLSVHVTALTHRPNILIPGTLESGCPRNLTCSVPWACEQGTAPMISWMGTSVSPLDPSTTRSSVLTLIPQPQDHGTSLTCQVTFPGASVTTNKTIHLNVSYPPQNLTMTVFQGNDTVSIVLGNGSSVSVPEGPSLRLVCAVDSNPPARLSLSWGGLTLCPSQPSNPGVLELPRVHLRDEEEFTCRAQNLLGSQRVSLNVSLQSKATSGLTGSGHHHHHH
Experimental: (§4) The binding affinity of chimeric antibodies was determined by biolayer interferometry (BLI), using a ForteBio Octet Red384 system. All samples were prepared in black 96-well flat bottom plates (Greiner, Cat. #655209) diluted in kinetics buffer (lx DPBS (Gibco, Cat. #LS14190250) containing 0.1% bovine serum albumin, 0.05% sodium azide, and 0.02% Tween®20). Anti-SIGLEC-9 antibodies (ligand) were diluted to a final concentration of 10 ug/mL and captured on anti-human IgG Fc capture (AHC) biosensors (ForteBio, Cat. #18-5060). […] Biosensors were rehydrated prior to the assay in kinetics buffer for 10 minutes and then equilibrated in kinetics buffer for 60 seconds. Antibody was then immobilized for 300 seconds followed by a 120 second baseline wash in fresh kinetics buffer, 300 second analyte association, and 300 second dissociation in the same buffer wells as the baseline wash step. All assay steps occurred at 30° C. with an acquisition rate of 5.0 Hz
(§5) Processing parameters included double reference subtraction, with human IgG4 used as an isotype control for reference sensor subtraction and immobilized ligand in kinetics buffer with no analyte used for reference sample subtraction. Y-axis data was aligned to the average baseline step for the last 5 seconds and all steps were inter-step corrected to the start of the dissociation step. High frequency noise was removed using Savitzky-Golay filtering and final fitting was a 1:1 global binding model to both association and dissociation.

[12] = molecular target: Recombinant human Siglec-7-His (human, UniProt Q9Y286 19-353, limits assumed); test: as above
Sequence of Recombinant human Siglec-7-His (Q9Y286 19-353 limits assumed): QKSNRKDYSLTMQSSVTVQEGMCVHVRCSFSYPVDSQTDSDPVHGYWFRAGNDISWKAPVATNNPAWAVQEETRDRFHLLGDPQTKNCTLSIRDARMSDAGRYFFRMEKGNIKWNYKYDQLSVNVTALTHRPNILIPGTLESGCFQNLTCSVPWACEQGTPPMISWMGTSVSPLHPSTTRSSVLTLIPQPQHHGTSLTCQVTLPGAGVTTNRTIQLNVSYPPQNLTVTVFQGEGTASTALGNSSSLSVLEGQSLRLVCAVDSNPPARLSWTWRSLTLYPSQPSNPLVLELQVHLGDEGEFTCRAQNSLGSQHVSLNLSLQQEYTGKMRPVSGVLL
Experimental: as §4, §5

[13] = molecular target: T5, Recombinant human Siglec-9-His (human, UniProt Q9Y336 18-348); test: BLI (Octet Red384), chimeric antibody on AHC sensor, His-tagged analyte 100-1.56 nM, 1:1 global fit
T5 construct: The entry begins at QTSK... like the Q18-G348 extracellular domain of the Fc fusion and ends in GSG and a His tag
T5 sequence (Q9Y336 other isoform, or with tags, fused parts or gaps limits assumed): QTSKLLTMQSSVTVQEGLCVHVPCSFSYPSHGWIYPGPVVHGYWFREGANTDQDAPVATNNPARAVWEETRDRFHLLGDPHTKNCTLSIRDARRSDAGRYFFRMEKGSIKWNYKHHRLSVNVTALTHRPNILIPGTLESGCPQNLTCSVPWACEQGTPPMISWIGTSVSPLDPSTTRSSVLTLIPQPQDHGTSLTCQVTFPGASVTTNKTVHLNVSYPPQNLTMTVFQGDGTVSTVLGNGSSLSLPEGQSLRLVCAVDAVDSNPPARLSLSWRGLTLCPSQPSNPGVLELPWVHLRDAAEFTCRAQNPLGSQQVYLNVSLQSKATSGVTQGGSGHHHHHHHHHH
Experimental: as §4, §5

| Binder | maximum binding nm shift [1] [nm] | binding result (Human SIGLEC7) | maximum binding nm shift [2] [nm] | maximum binding nm shift [3] [nm] | binding result (Cyno SIGLEC9) | maximum binding nm shift [4] [nm] | maximum binding nm shift [5] [nm] | maximum binding nm shift [6] [nm] | maximum binding nm shift [7] [nm] | maximum binding nm shift [8] [nm] | maximum binding nm shift [9] [nm] | maximum binding nm shift [10] [nm] | binding result [11] | binding result [12] | Kd [13] [pM] |
| --- | --- | --- | --- | --- | --- | --- | --- | --- | --- | --- | --- | --- | --- | --- | --- |
| B1 | 0.745 | binds | 0.524 | 0.686 | binds | 0.495 | 0.73 | -0.022 | 0.561 | 0.619 | 0.658 | – | – | – | – |
| B2 | 0.09 | no binding (tested: 100 nM) | 0.185 | -0.02 | no binding (tested: 100 nM) | 0.202 | – | 0.175 | 0.231 | 0.198 | 0.379 | 0.263 | – | – | – |
| B3 | 0.463 | no binding (tested: 100 nM) | 0.439 | 0.336 | no binding (tested: 100 nM) | 0.358 | 0.518 | 0.324 | 0.03 | 0.352 | – | 0.349 | – | – | – |
| B4 | – | no binding (tested: 100 nM) | – | – | – | – | – | – | – | – | – | – | – | – | – |
| B5 | 0.472 | – | 0.352 | 0.336 | – | 0.392 | 0.392 | 0.282 | – | 0.399 | 0.003 | 0.395 | – | – | – |
| B6 | 0.277 | – | – | 0.242 | – | 0.011 | 0.263 | 0.139 | 0.233 | 0.001 | 0.231 | 0.162 | – | – | – |
| B7 | 0.271 | – | -0.016 | 0.224 | – | – | 0.251 | 0.135 | 0.232 | 0.003 | 0.228 | 0.163 | – | – | – |
| B8 | – | – | – | – | – | – | – | – | – | – | – | – | no binding (tested: analyte titrated from 100 nM to 1.56 nM) | no binding (tested: analyte titrated from 100 nM to 1.56 nM) | 4.4 |
